Assay results taken from article doi:10.1101/2022.03.31.486303 (bioRxiv, 2022).
Each block holds one molecule with its values, some of them ahead of it.

Tests used:
[1] = target: Cse4-NCP (Cse4 containing nucleosome core particle) (budding yeast) (UniProt P36012); experiment: cross-linking
Ame1/Okp1 complex = Ame1/Okp1 complex (budding yeast, UniProt P38313;P53298); experiment: pull-down
Spc24/25 complex = Spc24/25 complex (budding yeast, UniProt Q04477;P40014); experiment: cross-linking
[2] = target: Mif2* (Mif2-6xHis-6xFlag wild type, dephosphorylated and in vitro phosphorylated by Cdc5) (budding yeast, UniProt P35201 1-549); experiment: pull-down
Dsn1/Nsl1 = target: T1, Dsn1/Nsl1 (budding yeast, UniProt P40568;Q12143); experiment: SEC
T1 sequence 1: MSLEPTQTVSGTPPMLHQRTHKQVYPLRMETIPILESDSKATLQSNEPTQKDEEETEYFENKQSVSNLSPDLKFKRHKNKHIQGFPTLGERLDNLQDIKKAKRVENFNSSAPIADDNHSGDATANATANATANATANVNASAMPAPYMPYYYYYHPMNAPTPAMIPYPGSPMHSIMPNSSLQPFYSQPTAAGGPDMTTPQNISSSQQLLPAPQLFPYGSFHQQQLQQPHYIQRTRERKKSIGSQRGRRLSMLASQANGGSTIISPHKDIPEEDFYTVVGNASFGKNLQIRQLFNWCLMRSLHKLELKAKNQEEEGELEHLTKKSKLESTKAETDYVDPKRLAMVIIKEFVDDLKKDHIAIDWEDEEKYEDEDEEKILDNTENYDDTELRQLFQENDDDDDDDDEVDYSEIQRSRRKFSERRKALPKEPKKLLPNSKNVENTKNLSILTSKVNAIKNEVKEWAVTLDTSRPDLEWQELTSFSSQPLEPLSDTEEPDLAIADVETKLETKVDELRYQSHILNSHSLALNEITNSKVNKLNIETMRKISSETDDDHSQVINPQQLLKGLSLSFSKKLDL
T1 sequence 2: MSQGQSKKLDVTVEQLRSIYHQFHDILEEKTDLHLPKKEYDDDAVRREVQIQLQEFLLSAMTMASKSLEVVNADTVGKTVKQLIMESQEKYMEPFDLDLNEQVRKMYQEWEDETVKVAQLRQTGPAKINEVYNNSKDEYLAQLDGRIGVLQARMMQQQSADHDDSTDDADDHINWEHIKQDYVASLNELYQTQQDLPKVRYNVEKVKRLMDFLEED

Ame1/Okp1 complex, sequence (P38313 whole entry, chain 1 of 2): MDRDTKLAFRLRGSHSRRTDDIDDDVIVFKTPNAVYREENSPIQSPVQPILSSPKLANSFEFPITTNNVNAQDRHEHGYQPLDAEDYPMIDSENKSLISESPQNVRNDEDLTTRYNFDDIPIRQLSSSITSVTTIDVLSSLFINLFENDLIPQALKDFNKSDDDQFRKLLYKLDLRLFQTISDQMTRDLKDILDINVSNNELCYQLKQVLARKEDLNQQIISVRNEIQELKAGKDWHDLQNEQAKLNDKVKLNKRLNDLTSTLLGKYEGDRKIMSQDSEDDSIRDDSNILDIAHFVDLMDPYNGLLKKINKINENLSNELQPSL
Ame1/Okp1 complex, sequence (P53298 whole entry, chain 2 of 2): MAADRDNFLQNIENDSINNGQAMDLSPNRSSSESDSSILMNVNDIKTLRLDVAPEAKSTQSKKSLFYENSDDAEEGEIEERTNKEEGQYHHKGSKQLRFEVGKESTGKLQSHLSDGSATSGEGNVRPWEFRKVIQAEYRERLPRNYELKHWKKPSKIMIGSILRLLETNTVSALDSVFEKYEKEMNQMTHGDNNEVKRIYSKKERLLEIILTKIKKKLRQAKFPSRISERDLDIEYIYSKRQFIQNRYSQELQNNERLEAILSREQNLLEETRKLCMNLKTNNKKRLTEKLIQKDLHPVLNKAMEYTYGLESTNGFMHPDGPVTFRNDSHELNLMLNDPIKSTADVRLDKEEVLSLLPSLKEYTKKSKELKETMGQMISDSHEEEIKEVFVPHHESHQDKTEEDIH
Spc24/25 complex, sequence (Q04477 whole entry, chain 1 of 2): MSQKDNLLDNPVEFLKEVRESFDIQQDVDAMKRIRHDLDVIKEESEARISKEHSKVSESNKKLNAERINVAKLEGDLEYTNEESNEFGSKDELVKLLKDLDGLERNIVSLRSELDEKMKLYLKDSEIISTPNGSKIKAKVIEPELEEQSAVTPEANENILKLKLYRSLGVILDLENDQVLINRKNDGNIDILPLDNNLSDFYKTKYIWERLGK
Spc24/25 complex, sequence (P40014 whole entry, chain 2 of 2): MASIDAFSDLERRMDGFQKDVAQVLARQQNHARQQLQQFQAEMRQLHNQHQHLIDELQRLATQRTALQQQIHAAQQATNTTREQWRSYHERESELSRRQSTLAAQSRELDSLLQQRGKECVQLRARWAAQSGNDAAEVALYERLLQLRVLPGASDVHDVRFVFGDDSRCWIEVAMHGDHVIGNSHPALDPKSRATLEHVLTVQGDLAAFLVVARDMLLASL

Molecule: Mif2* (Mif2-6xHis-6xFlag wild type, dephosphorylated and in vitro phosphorylated by Cdc5) (from UniProt P35201 1-549) (natural protein)
- fold decrease of KD with MTW1c(Dsn1^S240D,S250D) against wild-type MTW1c [1]: 20 fold

Molecule: NKDPNEVRSFLQDLSQVLARKSQGN [Cnn1^60-84 peptide]
- Kd (Spc24/25 complex): 2.6 µM

Continued, values first:

- binding result (Ame1/Okp1 complex): binds
B1: Mif2^Δ200-230 mutant, in vitro phosphorylated by Cdc5 (natural protein)
chain: MDYMKLGLKSRKTGIDVKQDIPKDEYSMENIDDFFKDDETSLISMRRKSRRKSSLFLPSTLNGDTKNVLPPFLQSYKSQDDEVVQSPSGKGDGSRRSSLLSHQSNFLSPANDFEPIEEEPEQEENDIRGNDFATPITQKLSKPTYKRKYSTRYSLDTSESPSVRLTPDRITNKNVYSDVPDLVADEDDDDRVNTSLNTSDSGSDSASDSDGDNTYQEVEEEAEVNTNDNEDDYIRRQASDVVRTDSIIDRNGLRKSTRVKVAPLQYWRNEKIVYKRKSNKPVLDIDKIVTYDESEDEEEILAAQRRKKQKKKPTPTRPYNYVPTGRPRGRPKKDPNAKENLIPEDPNEDIIERIESGGIENGEWLKHGILEANVKISDTKEETKDEIIAFAPNLSQTEQVKDTKDENFALEIMFDKHKEYFASGILKLPAISGQKKLSNSFRTYITFHVIQGIVEVTVCKNKFLSVKGSTFQIPAFNEYAIANRGNDEAKMFFVQVTVSEDANDDNDKELDSTFDTFG

- binding result [2]: binds
- binding result (Ame1/Okp1 complex): binds
- binding result (Dsn1/Nsl1): binds
B2: Mtw1/Nnf1 (complex)
chain 1: MSAPTMRSTSILTEHLGYPPISLVDDIINAVNEIMYKCTAAMEKYLLSKSKIGEEDYGEEIKSGVAKLESLLENSVDKNFDKLELYVLRNVLRIPEEYLDANVFRLENQKDLVIVDENELKKSEEKLREKVNDVELAFKKNEMLLKRVTKVKRLLFTIRGFKQKLNELLKCKDDVQLQKILESLKPIDDTMTLLTDSLRKLYVDSESTSSTEEVEALLQRLKTNGKQNNKDFRTRYIDIRTNNVLRKLGLLGDKEDEKQSAKPDARTQAGDIVSIDIEEPQLDLLDDVL
chain 2: MVNSHGIRYIRLKQVFNRALDQSISKLQSWDKVSSCFPQYVNSKQGAINVANCQRQLTEFWTELCQREFKEIMEERNVEQKLNELDELILEAKERYTDRDQDEVNKGPAIDELSSKELVECHLYSQRMHAIHEIDERLAKVNEMNDQLAQELKDLETQVEVEKNEIGKMYDEYLGSHTDQPANVLLVQSLNDMVLELKENY
